Where “and” joins values, the source holds several entries; their conditions need not be identical. Equal values may be shown once.
Target: HIS6-GABARAP (human) (UniProt O95166)
Assay: native MS; proteins exchanged into ammonium acetate, nanoelectrospray, Synapt G2Si; C53 1-5 µM or IDR 2.5 µM with 5-20 µM ATG8A or GABARAP

Chain of HIS6-GABARAP (human) (O95166 whole entry): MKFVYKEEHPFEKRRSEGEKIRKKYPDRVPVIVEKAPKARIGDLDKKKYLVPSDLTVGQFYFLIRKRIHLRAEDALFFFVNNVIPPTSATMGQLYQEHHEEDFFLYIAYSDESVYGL
Chain of HIS6-HsC53 (Q96JB5 whole entry): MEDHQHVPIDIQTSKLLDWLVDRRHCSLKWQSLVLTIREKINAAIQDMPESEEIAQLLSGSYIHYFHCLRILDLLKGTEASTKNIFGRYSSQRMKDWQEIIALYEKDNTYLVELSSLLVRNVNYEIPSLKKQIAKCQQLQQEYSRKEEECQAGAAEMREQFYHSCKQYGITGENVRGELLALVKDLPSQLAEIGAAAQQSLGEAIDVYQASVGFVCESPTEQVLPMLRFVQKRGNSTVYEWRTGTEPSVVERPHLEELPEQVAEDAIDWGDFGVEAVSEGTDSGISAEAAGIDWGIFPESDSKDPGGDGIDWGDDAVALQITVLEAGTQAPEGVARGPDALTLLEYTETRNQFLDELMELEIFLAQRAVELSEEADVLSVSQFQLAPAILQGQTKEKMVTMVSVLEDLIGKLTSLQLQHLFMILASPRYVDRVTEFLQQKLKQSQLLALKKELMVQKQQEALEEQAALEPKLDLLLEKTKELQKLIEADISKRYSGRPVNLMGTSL

stoichiometry N (GABARAP per HsC53): 1 and 2
Substance: HIS6-HsC53 (from UniProt Q96JB5 1-506) (natural protein)

Reference: publication PMC7515635
